{"source": "the DeepSol protein solubility set"}
{"assay": "soluble on expression in E. coli; label from the status in PepcDB or PDB records"}
{"sequence": "GPGSMTDDSSGLQSELSHALEGEGNLSVDAMLSQSLVKADLQTPSARILLKKIERPPGRFDLLTNSLVYSWQTTAAQARKVTGPMREWASELKYRTGVHLEVEPTNPTRLGVPEEEGGYAAADDVELTVYLFGSERGIFNCRQLMETALDQNPAYVRLAVFRRRPGKGVSTSTAAVPRPQEDVEWLLLRRINRDLRPPDIPPISLKTPGKWTLLYEQYKEAAIRTLWEETGITVEAGNVYPTAVLCQDNPIYYWRVPVHYFLAEVPYDVQVLGPQVGLNTYMHHWDSSLLRQSPDPIDRAWAQLADPETGCAWMKQPMIDELQRPLRGENYMATRYTPPPYSQLNHALGLAVPAEAAGEASAADSALSAATTAEGGEAQDDVKEDDAAAPSADADASSSNDKPSS", "soluble on expression in E. coli": "soluble"}
{"sequence": "GPGSMTGLTVPRGEYTNVVVHHRMVGVSAFDDQFNCDWNFELYGVAERIKEHHGGAISDGFRMWLNRVEPGFIVRNFKQSLREAFGLTPPSALLMTSEEDIPHHEVTVYYDFEPAALRFPLLNIRLGE", "soluble on expression in E. coli": "soluble"}
{"sequence": "GPGSMTVRRMFCFLLPPPSHHRLSRSSLAHAHLPHIRMSAHFAQCRSTHVHTYTHTHVHTHDTLARAACRLCTSSPPVRAREMALLAPKALHKRVKGTNVEVRKEVTDDNTDAQLALLYSIHADDETELRWLHNTLRPERNLVHPSDAFLHGIKALHPAAVFNTFDVKKAKLRRLTKYEKDKETAMKRRKKEVAPTAAYKAAVNPHKTPRTGGAAPADEVRVLSRGMNKAQKARSRTRTAHKSGKVVNGAEAPKGFFTKWKKRKLEKIGRGL", "soluble on expression in E. coli": "soluble"}
{"sequence": "GPGSMTYKLLAPLHPESARAQKIMVAAAYANVDVELKVCQYGQENETPEFARNCSPCMRFPSMQTEEGYLFESNAIMRHIARVEKSGAKLYGATPFESSQVDMWLDFASSELDAHNTPYLMETFAGIPAPESAMATLEESLAGLELWLETRTFLVGERMTVADISVAFALQWVYRMNVKHGEELTKKYRNAYRLYNTVMQQPKTVEVLKQWGATFGPAKAPKKAAEAKPKEGKKPKEAVEDEEEQPAKEEKKSNPLDALPPSSFVLDAYKREYSNTDTRTVAAPYFFEHYDAEGYTCFWARYKYNEDNKKQFMTANLVRGWFQRMEHVRKYAFGVALIIGEDAAHELVSFWVFRGKGMPEIVSEVVDTELFEWEEIKDVQAAKEKITDYLCWEGPTIPRPVLEGRCFK", "soluble on expression in E. coli": "soluble"}
{"sequence": "GPGSMTYYRERRKTLTVQGLKDAVQESLAKYLYDNAIFCAERLYALAPTHESLHTVAHCYVTSGDAGTAYRILRAHYPYLLSATPSFATTNSSTSGNGTGVGSNTAADAAARWDCQYLLGVTCGMTQRYMEGESFLEELERQQSSSEVLYWLGVCRRHLRRGYAEEAFAKSAVLDPLNFVAFENHVKMTRTPREEVRCIYTDAAPGVGAEDAVRRSSMSGMGIGGVGGAHRHVKREALRLYLSPFASVTFLQWTYRCKEARALLQHESFPERDSGWAFGALAMAYFHDGDVENSTVEFANMRRVAPWRLADPALVYYSTALWQRKELGTLGSLSQTLINEMPASPITLCVVANNYSLAKESKESLCMLNRAIQVDHDFAYAHTLRGYELLYLDLKSEAVDAFHEAILIDGGHYNAYAGLGELYFRSEDLQKARNYFQQAISINPLPTIMNRYAATYHRRDATRESLNEALRIYESAIRRHPTNLGARHQRAEVLIRLGRFHEAHDELLGMTKECPDEAMLYVTLAKCVHLMGLTGQAVQYYHTAMDLDPRRVGYIKSCLERLAMGKPDVAEANA", "soluble on expression in E. coli": "not soluble"}
{"sequence": "GPGSMVAKQSTAKGGSRYPPLTADQEKEVTELMELMRTKYDPLPQQLLALQRYNPQMEGTASEGAVAGTFFSPIRNYCYYFLISREWDRQKSFEMMQLSVSYREKNELDSRAELPSAICCRGWEQEKVRIALDKPARPTSQRLDRLSAGIEQYFTFGLHYWDKHGQPVVYLNLGSVDEPGLLKKLKQLANIGQTPNLVMWELVQHLIGVQEQLLFYQQMQYAAGTLKAEADDGLIRSATIVIDLNGLTYKMLWKPALDLFMNMLQTLFQYYPKCVHQILLVNSPPMVMFAYKIVRGALPHGVQRKVHIVNVADTPATMQSFIDAQYVPDYLGGLCHCEGGCVRGYDPHQRGTMKDSGTAKSDTRNVQSGDQDDEAGVVTEEITLKAGQELKRAFSLKRAESVVWEFVSANGRDVAFSTYFVPKKAAPSIDTSKLPTSMLESYVVSKASPSEGSDKYTASDDGIFVIVWDNKKSWFTAKYLQLNVFKQAATLTDGA", "soluble on expression in E. coli": "not soluble"}
{"sequence": "GPGSMVEACFLCLDSTEYMRNGDQYPTRMMAEQDAACLLANAKLQANAENTLGFLTTGGNACTVYETLTNNVDAIMTSIGSIPVNGKRCNFSSGLQIASLALSHRTNSRAEKRIVAFVGSPIGETAAELEALAKKLRKDDVAVDVVAFGVESNVELLQAFVKKVSKKENSRFLAVAARENLTDKLMSNAILLGEDLPEGAEGGGASMSGFGVDPNMDPELAMALRLSMEDEMQRQAAAAAAAASSAAPESAPASGSAATPAAPAAPAAAPVVDEDELSYENMSEEEMMRRAIALSLQDTAQGASDTASSPSVPQPATTSEACRNEEENEDDFAKGVEAALEEEEDEENRS", "soluble on expression in E. coli": "soluble"}
{"sequence": "GPGSMVQRTLFDFVSKKGDNATTEEVGSKTESGQPSASSRKRTAEDQVANGGASNLTRARVAKENNGALASLIVDPGWEAFLKPLTTSSNFERIEKFLEGELNAGKTILPPREMIFSAFNSTPLDMLKVVLLGQDPYHNVGQAHGLCFSVLPGVPPPPSLINMYKELATDIPGFVAPQHGYLQHWAEQGVLMLNATLTVEIHKANSHATCGWQTFTDDVIRLLSEKHKNPLVFLLWGGFAKRKISLIDRKRHVVIECAHPSPLSAAKWWGSRPFSKCNTALVEKKLSPIDWKLPVCLSKGK", "soluble on expression in E. coli": "not soluble"}
{"sequence": "GPGSSISNLSMQTHAARMRTFMYWPSSVPVQPEQLASAGFYYVGRNDDVKCFCCDGGLRCWESGDDPWVEHAKWFPRCEFLIRMKGQEFVDEIQGRY", "soluble on expression in E. coli": "soluble"}
{"sequence": "GPHMADLLLNSTQFVQAFTYLIQNDKEFANKLHKAYLNGCSNLLLD", "soluble on expression in E. coli": "soluble"}
{"sequence": "GPLGSHMASEFINQGDVTEGNNNQEEVYCFCRNVSYGPMVACDNPACPFEWFHYGCVGLKQAPKGKWYCSKDCKEIANQRSKSKRQKRRK", "soluble on expression in E. coli": "soluble"}
{"sequence": "GPLGSMIVFVRFNSSHGFPVEVDSDTSIFQLKEVVAKRQGVPADQLRVIFAGKELRNDWTVQNCDLDQQSIVHIVQRPWRK", "soluble on expression in E. coli": "soluble"}
{"sequence": "GPLGSPEFPGAFRTQKPSLNTVNVVGSSMGSGGVFTIDGKIKCVTAAHVLTGNSARVSGVGFNQMLDFDVKGDFAIADCPNWQGVAPKAQFCEDGWTGRAYWLTSSGVEPGVIGNGFAFCFTACGDAGSPVITEAGELVGVHTGSNKQGGGIVTRPSGQFCNVKPIKLSELSEFFAGPKVPLGDVKIGSHIIKDTCEVPSDLCALLAAKPELE", "soluble on expression in E. coli": "soluble"}
{"sequence": "GPLGSPEFPGEFYIPPEPSNDAIEIFSSGIASGIHFSKYNNIPVKVTGSDVPQPIQHFTSADLRDIIIDNVNKSGYKIPTPIQKCSIPVISSGRDLMACAQTGSGKTAAFLLPILSKLLEDPHELELGRPQVVIVSPTRELAIQIFNEARKFAFESYLKIGIVYGGTSFRHQNECITRGCHVVIATPGRLLDFVDRTFITFEDTRFVVLDEADRMLDMGFSEDMRRIMTHVTMRPEHQTLMFSATFPEEIQRMAGEFLKNYVFVAIGIVGGACSDVKQTIYEVNKYAKRSKLIEILSEQADGTIVFVETKRGADFLASFLSEKEFPTTSIHGDRLQSQREQALRDFKNGSMKVLIATSVASRGLDIKNIKHVINYDMPSKIDDYVHRIGRTGRVGNNGRATSFFDPEKDRAIAADLVKILEGSGQTVPDFLRTC", "soluble on expression in E. coli": "soluble"}
{"sequence": "GPLGSPEFPGRRKPEAQPFAHLTINAASIPSGSHKVTLSSWYHDRGWAKISNMTLSNGKLRVNQDGFYYLYANICFRHHETSGSVPTDYLQLMVYVVKTSIKIPSSHNLMKGGSTKNWSGNSEFHFYSINVGGFFKLRAGEEISIQVSNPSLLDPDQDATYFGAFKVQDID", "soluble on expression in E. coli": "soluble"}
{"sequence": "GPLGSPPSKEILTLKQVQEFLKDGDDVVILGVFQGVGDPGYLQYQDAANTLREDYKFHHTFSTEIAKFLKVSLGKLVLMQPEKFQSKYEPRMHVMDVQGSTEASAIKDYVVKHALPLVGHRKTSNDAKRYSKRPLVVVYYSVDFSFDYRTATQFWRNKVLEVAKDFPEYTFAIADEEDYATEVKDLGLSESGGDVNAAILDESGKKFAMEPEEFDSDALREFVMAFKKGKLKPVIKSQPVPKNNKGAAAS", "soluble on expression in E. coli": "soluble"}
{"sequence": "GPLGSTSLVQGLTPPPDFNQCLKNSPDEKFFSDFSNNMGSRKNPDPLATEEVPNQEQIPEEGFIHTQYGQKPEQPSGASAGHRFPQGYHSDKRRLSKASSKARSDDLSV", "soluble on expression in E. coli": "soluble"}
